The series concerns the target ZBTB3 recombinant protein (UniProt Q9H5J0 1-574). The series can be described thus: EMSA; 10 ng recombinant protein; EMSA: 20 nM biotin probe, 100 mM Tris pH 7.5, 55 mM KCl, 2.5 mM MgCl2, 1 mM DTT, 500 ng poly(dI-dC), 5% glycerol, 0.05% NP-40, 20 ul, room temperature 20 min; 500x unlabeled competitor; 6% native PAGE, 0.5x TBE. As to conditions: protein: commercial; chain copies: 2; label: 5' biotin on strand 1; blunt.

ZBTB3 recombinant protein, sequence (Q9H5J0 whole entry): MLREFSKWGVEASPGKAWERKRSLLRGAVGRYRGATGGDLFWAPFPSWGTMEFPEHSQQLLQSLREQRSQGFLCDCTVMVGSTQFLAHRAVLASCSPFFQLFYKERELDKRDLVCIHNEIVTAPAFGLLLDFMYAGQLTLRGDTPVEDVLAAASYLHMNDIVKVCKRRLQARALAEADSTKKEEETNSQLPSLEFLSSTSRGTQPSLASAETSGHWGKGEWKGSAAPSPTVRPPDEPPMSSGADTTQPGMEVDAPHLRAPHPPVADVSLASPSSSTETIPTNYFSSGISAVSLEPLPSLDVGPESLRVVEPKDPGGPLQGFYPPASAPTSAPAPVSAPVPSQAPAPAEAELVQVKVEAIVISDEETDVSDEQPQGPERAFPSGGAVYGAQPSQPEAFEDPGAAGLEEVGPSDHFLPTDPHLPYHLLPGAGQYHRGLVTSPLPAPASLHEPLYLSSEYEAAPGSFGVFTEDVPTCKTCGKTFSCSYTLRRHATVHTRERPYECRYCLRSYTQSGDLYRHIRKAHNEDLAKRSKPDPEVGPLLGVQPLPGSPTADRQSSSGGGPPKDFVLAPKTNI

B1: IRF5-promoter (dsDNA)
DNA 1: CCGGGAGCCCCGCTGGAGGCTGGCTTGGA
DNA 2: TCCAAGCCAGCCTCCAGCGGGGCTCCCGG
For B1, the binding result is on record as “binds”.

B2: rs4728142-A (dsDNA)
DNA 1: CCAAAAAGCTCTGAGCCAGTGTTAGTAAGAAATGG
DNA 2: CCATTTCTTACTAACACTGGCTCAGAGCTTTTTGG
Regarding B2, the binding result is given as “binds”.

(Values after PMC9984425, “An autoimmune pleiotropic SNP modulates IRF5 alternative promoter usage through ZBTB3-mediated chromatin looping”.)
